In patent US7476386B1 (priority 1997, dated 2009):
Ends that are not written are not given here. * marks the point of attachment. Palmitoyl = CCCCCCCCCCCCCCCC(=O)*

Legend:
Type in all cases: physicochemical
[1] = Sterilizing filtration (0.22 μm) of lipopeptide mixtures; settings: for yield (%): batch CK9, 20 mg/ml in 80% acetic acid, filtered 0.22 μm, range reflects precision of determination
Experimental: The solutions obtained were subjected to ultrasonic action to encourage the dispersion of the aggregates, mixed to give a final volume of 5.5 ml, and the mixture was again subjected to ultrasonic action, then diluted with 9.5 ml of water to obtain a final concentration of about 8% in acetic acid (AcOH), compatible with a good quality freeze-drying. This solution, after a final period in the ultrasonic bath, was filtered over Millipore Millex GV SLGV 0130S filters (0.22 μm).
An ultrasonic step was used at each stage to ensure effective dispersion of the aggregates.
The solutions were mixed, then filtered over Millex GV SLGV 0130S filters (0.22 μm). […] The receiver vessels and the filter were then rinsed with water, in sufficient quantity to give a final acetic acid concentration of 8% (final volume 15 ml as before), so as to ensure the quality of the freeze-drying step.
The procedure used was the same as for the previous batch, apart from the quantities. The solution of the peptide (20 mg/ml in 80% acetic acid) was filtered in 4 portions, changing the filter before its saturation, using identical membranes (Durapore STERIVEX GV 0.22 μm sterile units (Millipore)), then made up with the water used for rinsing the filters and for dilution. The final volume was 1516 ml (including 154 ml of acetic acid: 10% in final solution). The portion volume was 1.3 ml per dose. The apportioned doses were freeze-dried, and analysed using a validated HPLC determination method.
This set of peptides was synthesized as described in the previous examples.
This set of peptides was synthesized as described in example 1. The mixture of solutions was performed on a sample of 5 mg of each peptide previously dissolved at a concentration of 20 mg/ml in 80% acetic acid then mixed in the following order: 1: LSA3 NRI; 2: LSA3 NRII; 3: LSA3 CT1; 4 LSA3 RE.

[2] = Test of uniformity of concentration on batch CK9; settings: batch CK9, 15 random samples, each injected three times
Experimental: According to the Pharmacopoeia, powders for parenteral use are subjected to a requirement of uniformity of concentration. The test must be performed on 10 random samples, which are analysed individually for the active ingredient using an appropriate analytical method. The preparation satisfies the test if the concentration of each sample is between 85 and 115% of the average concentration.
The test was performed on 15 random samples, taken up in solution and diluted in 80% acetic acid according to a standardized operational procedure, so as always to inject an identical proportion of about 15 μg, defined during preparation of the calibration curve. Each sample was injected three times, the concentration of each active ingredient corresponding to the average of the three values obtained.

[3] = Solubility of the lipopeptides in pure water
[4] = batch CK2, simple mixture diluted to about 8% acetic acid, 0.22 μm filter
[5] = batch CK3, each lipopeptide in 80% acetic acid, mixed then filtered 0.22 μm

Substance | Filtration yield (%) after mixing [1, 4] [%] | Filtration yield (%) after mixing [1, 5] | yield (%) [1] | Observed deviation [2] [%] | appearance of the solution in pure water [3]
EWRFDSRLAFHHVARELHPEYFKNK(Pam)-NH2 (EWRFDSRLAFHHVARELHPEYFKNK(Palmitoyl)-NH2; N-terminus assumed; SMILES CCCCCCCCCCCCCCCC(=O)NCCCC[C@H](NC(=O)[C@H](CC(N)=O)NC(=O)[C@H](CCCCN)NC(=O)[C@H](Cc1ccccc1)NC(=O)[C@H](Cc1ccc(O)cc1)NC(=O)[C@H](CCC(=O)O)NC(=O)[C@@H]1CCCN1C(=O)[C@H](Cc1c[nH]cn1)NC(=O)[C@H](CC(C)C)NC(=O)[C@H](CCC(=O)O)NC(=O)[C@H](CCCNC(=N)N)NC(=O)[C@H](C)NC(=O)[C@@H](NC(=O)[C@H](Cc1c[nH]cn1)NC(=O)[C@H](Cc1c[nH]cn1)NC(=O)[C@H](Cc1ccccc1)NC(=O)[C@H](C)NC(=O)[C@H](CC(C)C)NC(=O)[C@H](CCCNC(=N)N)NC(=O)[C@H](CO)NC(=O)[C@H](CC(=O)O)NC(=O)[C@H](Cc1ccccc1)NC(=O)[C@H](CCCNC(=N)N)NC(=O)[C@H](Cc1c[nH]c2ccccc12)NC(=O)[C@@H](N)CCC(=O)O)C(C)C)C(N)=O) [NEF 182] | 92 | quantitative | 96.23-102.05% | 5.84 | 
TQGYFPDWQNYTPGPGVRYPLTFGWCYKLVPK(Pam)-NH2 (TQGYFPDWQNYTPGPGVRYPLTFGWCYKLVPK(Palmitoyl)-NH2; N-terminus assumed; SMILES CCCCCCCCCCCCCCCC(=O)NCCCC[C@H](NC(=O)[C@@H]1CCCN1C(=O)[C@@H](NC(=O)[C@H](CC(C)C)NC(=O)[C@H](CCCCN)NC(=O)[C@H](Cc1ccc(O)cc1)NC(=O)[C@H](CS)NC(=O)[C@H](Cc1c[nH]c2ccccc12)NC(=O)CNC(=O)[C@H](Cc1ccccc1)NC(=O)[C@@H](NC(=O)[C@H](CC(C)C)NC(=O)[C@@H]1CCCN1C(=O)[C@H](Cc1ccc(O)cc1)NC(=O)[C@H](CCCNC(=N)N)NC(=O)[C@@H](NC(=O)CNC(=O)[C@@H]1CCCN1C(=O)CNC(=O)[C@@H]1CCCN1C(=O)[C@@H](NC(=O)[C@H](Cc1ccc(O)cc1)NC(=O)[C@H](CC(N)=O)NC(=O)[C@H](CCC(N)=O)NC(=O)[C@H](Cc1c[nH]c2ccccc12)NC(=O)[C@H](CC(=O)O)NC(=O)[C@@H]1CCCN1C(=O)[C@H](Cc1ccccc1)NC(=O)[C@H](Cc1ccc(O)cc1)NC(=O)CNC(=O)[C@H](CCC(N)=O)NC(=O)[C@@H](N)[C@@H](C)O)[C@@H](C)O)C(C)C)[C@@H](C)O)C(C)C)C(N)=O) [NEF 117] | 81 | quantitative | 109.08-116.72% | 4.67 | slightly opalescent solution
TRPNNNTRKSIHIGPGRAFYATGEIIGDIRQAHK(Palmitoyl)-NH2 [ENV] | 95 | quantitative | 104.71-110.89% | 14.95 | 
VGFPVTPQVPLRPMTYKAAVDLSHFLKEKGGLK(Pam)-NH2 [NEF 66] | 95 | quantitative | 89.14-94.6% | 4.23 | 
